Reference: patent US20200140512A1 (published 2020)

Key:
human PD-1-His = human PD-1-His (human, UniProt Q15116 25-167); assay: Octet
Cyno PD-1 = target: T1, Cyno PD-1; assay: Octet
T1 chain: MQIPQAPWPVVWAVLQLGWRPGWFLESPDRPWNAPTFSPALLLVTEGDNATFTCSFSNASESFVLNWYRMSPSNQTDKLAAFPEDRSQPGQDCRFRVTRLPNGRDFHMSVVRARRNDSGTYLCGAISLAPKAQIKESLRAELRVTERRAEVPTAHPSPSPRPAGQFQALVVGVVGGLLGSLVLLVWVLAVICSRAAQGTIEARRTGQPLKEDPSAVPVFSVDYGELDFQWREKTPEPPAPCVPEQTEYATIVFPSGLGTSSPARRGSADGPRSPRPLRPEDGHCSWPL

Sequence of human PD-1-His (Q15116 25-167): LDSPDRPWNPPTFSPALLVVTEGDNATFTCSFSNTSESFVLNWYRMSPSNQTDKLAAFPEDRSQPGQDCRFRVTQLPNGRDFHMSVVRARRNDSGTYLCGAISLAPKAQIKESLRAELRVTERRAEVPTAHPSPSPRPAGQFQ

Row | Binder | Kd (human PD-1-His) [nM] | Kd (Cyno PD-1) [nM]
1 | XENP28519 (bivalent mAb based on humanized mAb A) (antibody, V domains shown) VH: QVQLQESGPGLVKPSQTLSLTCTVSGHSITSDYAWNWIRQPPGKKLEWIGYISYSGYTTYNPSLKSRVTISRDTSKNQFSLKLSSVTAADTAVYFCARDLDYGPWFAYWGQGTLVTVSS VL: DIQMTQSPSSLSASVGDRVTITCRASENIHNYLAWYQQKPGKSPKLLVYNVKTLADGVPSRFSGSGSGTDYTLTISSLQPEDFATYYCQHFWSSPWTFGGGTKVEIKR | 11.9 | –
2 | XENP28536 (bivalent mAb based on humanized mAb C, mAb C[PD-1]_H1L1) (antibody, V domains shown) VH: EVQLVESGGGLVQPGGSLRLSCAASGFTFSSFGMHWVRQAPGKGLEWVSYISSGSSIIYYADSVKGRFTISRDNAKNSLYLQMNSLRAEDTAVYYCARGGRLVWSPDYWGQGTLVTVSS VL: DIVMTQSPDSLAVSLGERATINCKSSQSLLNSGNQKNYLTWYQQKPGQPPKLLIYWASTRESGVPDRFTGSGSGTDFTLTISSLQAEDVAVYYCQNDYSYPFTFGSGTKLEIK | 24 | 35.8
3 | XENP28537 (humanized variant of anti-PD-1 mAb C, bivalent human IgG1) (antibody, V domains shown) VH: EVQLVESGGGLVQPGGSLRLSCAASGFTFSSFGMHWVRQAPGKGLEWVSYISSGSSIIYYADSVKGRFTISRDNAKNSLYLQMNSLRAEDTAVYYCARGGRLVWSPDYWGQGTLVTVSS VL: DIVMTQSPLSLPVTPGEPASISCRSSQSLLNSGNQKNYLTWYLQKPGQPPQLLIYWASTRESGVPDRFTGSGSGTDFTLKISRVEAEDVGVYYCQNDYSYPFTFGSGTKLEIKR | – | 42
